Assay results reported in IntAct's records for PubMed 12679424.

B1: Insulin receptor substrate 1 (Homo sapiens), P35568 (parent)
chain: MASPPESDGFSDVRKVGYLRKPKSMHKRFFVLRAASEAGGPARLEYYENEKKWRHKSSAPKRSIPLESCFNINKRADSKNKHLVALYTRDEHFAIAADSEAEQDSWYQALLQLHNRAKGHHDGAAALGAGGGGGSCSGSSGLGEAGEDLSYGDVPPGPAFKEVWQVILKPKGLGQTKNLIGIYRLCLTSKTISFVKLNSEAAAVVLQLMNIRRCGHSENFFFIEVGRSAVTGPGEFWMQVDDSVVAQNMHETILEAMRAMSDEFRPRSKSQSSSNCSNPISVPLRRHHLNNPPPSQVGLTRRSRTESITATSPASMVGGKPGSFRVRASSDGEGTMSRPASVDGSPVSPSTNRTHAHRHRGSARLHPPLNHSRSIPMPASRCSPSATSPVSLSSSSTSGHGSTSDCLFPRRSSASVSGSPSDGGFISSDEYGSSPCDFRSSFRSVTPDSLGHTPPARGEEELSNYICMGGKGPSTLTAPNGHYILSRGGNGHRCTPGTGLGTSPALAGDEAASAADLDNRFRKRTHSAGTSPTITHQKTPSQSSVASIEEYTEMMPAYPPGGGSGGRLPGHRHSAFVPTRSYPEEGLEMHPLERRGGHHRPDSSTLHTDDGYMPMSPGVAPVPSGRKGSGDYMPMSPKSVSAPQQIINPIRRHPQRVDPNGYMMMSPSGGCSPDIGGGPSSSSSSSNAVPSGTSYGKLWTNGVGGHHSHVLPHPKPPVESSGGKLLPCTGDYMNMSPVGDSNTSSPSDCYYGPEDPQHKPVLSYYSLPRSFKHTQRPGEPEEGARHQHLRLSTSSGRLLYAATADDSSSSTSSDSLGGGYCGARLEPSLPHPHHQVLQPHLPRKVDTAAQTNSRLARPTRLSLGDPKASTLPRAREQQQQQQPLLHPPEPKSPGEYVNIEFGSDQSGYLSGPVAFHSSPSVRCPSQLQPAPREEETGTEEYMKMDLGPGRRAAWQESTGVEMGRLGPAPPGAASICRPTRAVPSSRGDYMTMQMSCPRQSYVDTSPAAPVSYADMRTGIAAEEVSLPRATMAAASSSSAASASPTGPQGAAELAAHSSLLGGPQGPGGMSAFTRVNLSPNRNQSAKVIRADPQGCRRRHSSETFSSTPSATRVGNTVPFGAGAAVGGGGGSSSSSEDVKRHSSASFENVWLRPGELGGAPKEPAKLCGAAGGLENGLNYIDLDLVKDFKQCPQECTPEPQPPPPPPPHQPLGSGESSSTRRSSEDLSAYASISFQKQPEDRQ

Variants of: B1
Conditions: with p85a_mouse Pik3r1, P26450
Sequence of p85a_mouse Pik3r1, P26450 (P26450 whole entry): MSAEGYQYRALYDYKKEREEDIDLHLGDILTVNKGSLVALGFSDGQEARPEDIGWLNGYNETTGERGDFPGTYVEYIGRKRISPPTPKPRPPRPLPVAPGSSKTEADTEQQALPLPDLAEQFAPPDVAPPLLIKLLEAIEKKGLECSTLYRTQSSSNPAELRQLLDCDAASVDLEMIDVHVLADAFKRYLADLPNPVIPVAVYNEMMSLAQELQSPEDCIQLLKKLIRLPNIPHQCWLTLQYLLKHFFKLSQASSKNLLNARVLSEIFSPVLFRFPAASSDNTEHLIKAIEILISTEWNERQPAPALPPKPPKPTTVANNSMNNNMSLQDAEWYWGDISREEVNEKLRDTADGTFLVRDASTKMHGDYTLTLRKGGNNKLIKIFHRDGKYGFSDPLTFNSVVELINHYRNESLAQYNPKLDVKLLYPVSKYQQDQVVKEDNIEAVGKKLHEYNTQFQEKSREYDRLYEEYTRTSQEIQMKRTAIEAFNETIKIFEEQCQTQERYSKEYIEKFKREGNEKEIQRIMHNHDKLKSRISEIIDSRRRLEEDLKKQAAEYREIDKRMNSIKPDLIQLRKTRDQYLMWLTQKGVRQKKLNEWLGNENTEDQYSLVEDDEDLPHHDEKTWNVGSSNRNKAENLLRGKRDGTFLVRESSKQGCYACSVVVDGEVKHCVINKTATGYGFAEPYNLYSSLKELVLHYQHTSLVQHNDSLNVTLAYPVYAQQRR

T608R was tested. Which “effect of a mutation on the interaction” value did it give?
Its value is “decreasing interaction”.
